The values below come from patent publication EP4786492A1 (Simcere Zaiming Pharmaceutical Co., Ltd., dated 2026).

Positions count from the first letter of the chain named.

In assay [1] the target is T1, human DLL3-his protein (human, UniProt Q9NYJ7 27-492).
T1 construct: also called human DLL3 protein; DLL3 antigen protein; not shown: His tag
T1 sequence: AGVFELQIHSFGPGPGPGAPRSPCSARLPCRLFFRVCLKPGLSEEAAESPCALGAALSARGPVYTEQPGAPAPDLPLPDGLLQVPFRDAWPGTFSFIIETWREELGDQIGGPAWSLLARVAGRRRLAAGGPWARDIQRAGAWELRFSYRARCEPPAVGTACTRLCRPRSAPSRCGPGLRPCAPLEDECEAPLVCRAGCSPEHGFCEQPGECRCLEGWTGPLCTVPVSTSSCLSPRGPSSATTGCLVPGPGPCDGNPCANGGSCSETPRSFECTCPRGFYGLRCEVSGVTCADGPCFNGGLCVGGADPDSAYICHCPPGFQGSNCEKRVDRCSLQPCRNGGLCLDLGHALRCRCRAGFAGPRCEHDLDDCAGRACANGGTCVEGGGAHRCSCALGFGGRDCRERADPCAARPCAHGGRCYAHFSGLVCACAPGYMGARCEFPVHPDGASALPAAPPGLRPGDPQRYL
The experiment in a line: ELISA. For orientation: ELISA stands for enzyme-linked immunosorbent assay.

Assay [2] concerns the target T2, monkey DLL3 on CHO K1-cyno DLL3 cells (cynomolgus monkey).
T2 construct: also called monkey DLL3 recombinant cell line
T2 chain: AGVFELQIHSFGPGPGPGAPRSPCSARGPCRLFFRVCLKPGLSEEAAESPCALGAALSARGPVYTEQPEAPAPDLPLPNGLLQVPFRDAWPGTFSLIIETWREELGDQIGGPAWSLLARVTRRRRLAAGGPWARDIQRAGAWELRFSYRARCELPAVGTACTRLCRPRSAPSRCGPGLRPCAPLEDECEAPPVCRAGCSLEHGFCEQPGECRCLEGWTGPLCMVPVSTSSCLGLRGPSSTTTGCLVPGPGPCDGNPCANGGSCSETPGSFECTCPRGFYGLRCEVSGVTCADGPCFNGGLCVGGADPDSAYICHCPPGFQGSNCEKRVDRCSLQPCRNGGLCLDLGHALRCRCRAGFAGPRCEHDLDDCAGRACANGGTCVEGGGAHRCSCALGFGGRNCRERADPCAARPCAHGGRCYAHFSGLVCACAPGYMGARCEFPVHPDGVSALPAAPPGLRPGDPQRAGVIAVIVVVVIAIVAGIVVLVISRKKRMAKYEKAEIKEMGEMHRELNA
Description: FACS, CHO K1-cyno DLL3 cells. For orientation: A flow cytometer gives signals particle by particle.

Assay [3] has as its target T3, human DLL1 protein (human, UniProt O00548 18-540, limits assumed).
T3 construct: bought protein; construct and tag not described; also called hDLL1
T3 sequence (looked up): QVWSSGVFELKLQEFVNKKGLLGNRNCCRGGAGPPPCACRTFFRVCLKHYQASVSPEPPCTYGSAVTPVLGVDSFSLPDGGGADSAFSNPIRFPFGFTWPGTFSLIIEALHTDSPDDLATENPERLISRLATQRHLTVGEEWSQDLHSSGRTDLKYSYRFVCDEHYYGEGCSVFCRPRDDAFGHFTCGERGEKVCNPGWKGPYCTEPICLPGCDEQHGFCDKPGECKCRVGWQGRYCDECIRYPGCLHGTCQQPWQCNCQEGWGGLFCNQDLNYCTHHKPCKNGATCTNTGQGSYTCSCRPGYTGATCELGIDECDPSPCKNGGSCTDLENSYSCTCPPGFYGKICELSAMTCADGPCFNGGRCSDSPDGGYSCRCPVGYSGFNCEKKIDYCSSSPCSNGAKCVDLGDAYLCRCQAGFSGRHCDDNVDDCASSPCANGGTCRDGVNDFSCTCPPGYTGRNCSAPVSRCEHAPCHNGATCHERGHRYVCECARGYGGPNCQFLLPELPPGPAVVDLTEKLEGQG
The experiment in a line: ELISA, maximum over 0.1-100 nM.

The target in assay [4] is T4, human DLL4 protein (human, UniProt Q9NR61 27-524, limits assumed).
T4 construct: bought protein; construct and tag not described; also called hDLL4
T4 sequence (Q9NR61 27-524 limits assumed): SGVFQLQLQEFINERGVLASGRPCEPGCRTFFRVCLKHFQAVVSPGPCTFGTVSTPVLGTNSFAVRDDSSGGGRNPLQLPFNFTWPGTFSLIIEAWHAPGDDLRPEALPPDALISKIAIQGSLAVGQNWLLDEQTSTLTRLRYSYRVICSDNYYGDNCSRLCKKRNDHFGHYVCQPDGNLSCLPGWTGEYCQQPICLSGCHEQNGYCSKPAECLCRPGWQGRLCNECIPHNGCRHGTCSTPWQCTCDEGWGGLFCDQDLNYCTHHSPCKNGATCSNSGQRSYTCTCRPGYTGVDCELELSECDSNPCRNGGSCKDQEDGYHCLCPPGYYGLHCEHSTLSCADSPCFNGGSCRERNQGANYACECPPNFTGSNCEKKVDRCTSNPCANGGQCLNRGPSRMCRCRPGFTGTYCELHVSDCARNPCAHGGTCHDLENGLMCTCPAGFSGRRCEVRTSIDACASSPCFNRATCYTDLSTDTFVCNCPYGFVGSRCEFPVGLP
Description: ELISA, maximum over 0.1-100 nM.

Assay [5] addresses T5, human DLL3 protein (extracellular segment, His tag) (human, UniProt Q9NYJ7 27-492).
T5 construct: also called human DLL3-his protein; DLL3 antigen; not shown: His tag
T5 sequence: T1 sequence
Description: SPR (Biacore 8K), antibody captured on Protein A chip, DLL3 antigen in solution, 1:1 Langmuir fit.

B1: mab005 scFv-hFc (Fc fusion)
scFv (part 1 of 2): DIVLTQSPATLSVTPGDSVSLSCRASQSVSNDLHWYQQKSHESPRLLIKYASQSISGIPSRFSGSGSGTDFTLTINSVETEDFGMYFCQQSNNWPYTFGGGTKLEMK
scFv (part 2 of 2): QVQLQQSGAELMKPGASVTLSCKATGYTLPGYWIEWVKQRPGHGLEWIGEILPGSSSANYNEKFKGKATFTADTSSNTAYMQLSSLTTEDSAIYYCASTYGTSLDYWGQGTTLTVSS
notes: human-murine chimeric scFv-hFc, VL-linker-VH-human IgG1 Fc; not shown: linker; Fc fragment of human IgG1
On to B1, for which the binding result in assay [1] and in assay [2] was “binds” each time. Besides, the “Emax of OD450 nm binding value” is 0.05 OD450 in assay [3] and 0.04 OD450 in assay [4].

B2: mab008 scFv-hFc (Fc fusion)
scFv (part 1 of 2): DIVMTQSQKFMSTSVGDRVSITCKASQNVGTAVAWYQQKPGQSPKLLIFSASIRYTGVPDRFTGSGSGTDFTLTISNMQSEDLADYFCQQYSSSPYTFGGGTKLEIK
scFv (part 2 of 2): EVQLQQSGPVLVKPGASVKMSCKASGYTFTDYYMNWVKRSHGKSLEWIGIINPYNGGTSYNQKFRGKATLTVDKSSNTAYMELNSLTSEDSAVYYCSRYDYDYDVEGAMDYWGQGTSVTVSS
notes: as for B1
As to B2, the binding result in assay [1] and in assay [2] was “binds” each time. Besides, the “Emax of OD450 nm binding value” amounted to 0.09 OD450 in assay [3] and 0.08 OD450 in assay [4].

B3: mab012 scFv-hFc (Fc fusion)
scFv (part 1 of 2): DVLMTQTPLSLPVSLGDQASISCRSSQSIVHSDGNTYLEWYLQKPGQSPKLLIYKVSNRFSGVPDRFSGSGSGTDFTLKISRVEAEDLGFYYCFQGSHVPFTFGSGTKLEIK
scFv (part 2 of 2): QVQLQQSGPELVKPGASVKISCKASGYTFTDYYIHWVKQRPGQGLEWIGWTLPGSGSPYYNEKFKGKATLTVDKSSSTAYMLLSSLTSEDSAVYFCARWHYYYGSSYHFDYWGQGTTLTVSS
notes: as for B1
In the case of B3, the binding result in assay [1] and in assay [2] was “binds” throughout. The “Emax of OD450 nm binding value” in assay [3] and in assay [4] was 0.08 OD450 in each case.

B4: mab004 scFv-hFc (Fc fusion)
scFv (part 1 of 2): DIVLTQSPASLAVSLGQRATISCRASESVDYDGDSYMNWYQQKPGQPPKLLIYVASNLESGIPARFSGSGSGTDFILNIHPVEEEDAATYYCLQSNEAPYTFGSGTKLEIK
scFv (part 2 of 2): QVQLQQPGAELVKPGASVKLSCKASGYTFTSYWINWVKQRPGQGLEWIGNIYPGSSSPNYNEKFKSKATLTVDTSSSTAYMQLSSLTSDDSAVYYCARSLLYAMDYWGQGTSVTVSS
notes: as for B1
With B4, the binding result in assay [1] and in assay [2] was “binds” in each case. In addition, the “Emax of OD450 nm binding value” in assay [3] was determined as 0.05 OD450; in assay [4], 0.04 OD450.

B5: mab002 scFv-hFc (Fc fusion)
scFv (part 1 of 2): QIVLTQSPAIMSASPGEKVTMTCSARSSVSYMQWYQQKSGTSPKRWIYDTSKLASGVPARFSGSGSGTSYSLTISTMEAEDAATYYCQQWSSDPPTFGGGTKLEIK
scFv (part 2 of 2): QIQLVQSGPELKKPGETVKISCKASGYTFTNYGMNWLKQAPGKGLKWMGWINTYTGESTYADDFKGRFAFSLETSASTVYLQINNLKNEDMATYFCARMGDGYYDFTMDYWGQGTSVTVSS
notes: as for B1
Consider B5, for which the binding result in assay [1] and in assay [2] was “binds” throughout. For the same molecule, the “Emax of OD450 nm binding value” in assay [3] and in assay [4] was 0.05 OD450 throughout.

B6: mab014 scFv-hFc (Fc fusion)
scFv (part 1 of 2): DIQMTQSSSSFSVSLGDRVTITCKASEDIYNRLAWYQQKPGNTPRLLISGATSLETGVPSRFSGSGSGKDFTLSITSLQTEDVATYYCQQYWSLPWTFGGGTKLEIK
scFv (part 2 of 2): EVQLHQSGPELVKPGTSVKISCKASGYTFTDYYMNWVKQSHGKSLEWIGDINPNHGDTGYNQKFTGKATLTVDKSSSTAYMELRSLTSEDSAVYYCARNFFYYGTTYGWYFDVWGTGTTVTVSS
notes: as for B1
With B6, the binding result in assay [1] and in assay [2] was “binds” throughout. For the same molecule, the “Emax of OD450 nm binding value” in assay [3] is 0.08 OD450; in assay [4], 0.06 OD450.

B7: mab003 scFv-hFc (Fc fusion)
scFv (part 1 of 2): DVQITQSPSYLAASPGETITINCRASKSISKYLAWYQEKPGKTNKLLIYSGSTLHSGIPSRFSGSGSGTDFTLTISSLEPEDFAIYYCQQHNEYPLTFGGGTKLELK
scFv (part 2 of 2): QVQLQQSGTELMKPGASVKLSCKATGYTFTGNWIEWVKQRPGHGLEWIGEILPGTGSTQYNEKFKGKATFTADPSSNTAYMQLSSLTTEDSAIYYCARWGSTVVAYDYWGQGTTLTVSS
notes: as for B1
With B7, the binding result in assay [1] and in assay [2] was “binds” each time. Moreover, the “Emax of OD450 nm binding value” in assay [3] is 0.06 OD450; in assay [4] it was 0.05 OD450.

B8: mab006 scFv-hFc (Fc fusion)
scFv (part 1 of 2): B7 scFv (part 1 of 2) with S26T, Y49F, H55Q, S63R, I85M, N92H, L96Y, L106I
scFv (part 2 of 2): QVQLQQPGAELVRPGTSVKLSCKASGYTFTSYWMHWVRQRPGQGLEWIGVIDPSDSLANYNQEFKGKATLTVDTSSSTAYMQLSSLTSEDSAVYYCARDSTVVAPMDYWGQGTSVTVSS
notes: as for B1
Take B8: the binding result in assay [1] and in assay [2] was “binds” each time. Moreover, the “Emax of OD450 nm binding value” in assay [3] was 0.08 OD450; in assay [4], 0.07 OD450.

B9: mab007 scFv-hFc (Fc fusion)
scFv (part 1 of 2): B7 scFv (part 1 of 2) with K27T, K39R, H55Q, S63R, I85M, N92H, E93V, L96Y, L106I
scFv (part 2 of 2): B8 scFv (part 2 of 2) with R38K
notes: as for B1
As to B9, the binding result in assay [1] and in assay [2] was “binds” throughout. Also, the results for the “Emax of OD450 nm binding value” in assay [3] and in assay [4] were 0.07 OD450 and 0.06 OD450, respectively.

B10: mab016 scFv-hFc (Fc fusion)
scFv (part 1 of 2): DIVMTQSQKFMSTTIGDRVSITCKASQNVGTTVAWYQQKPGQSPNLLLYSTSNRFTGVPDRFTGSGSGTDFTLTITNMQSEDLADYFCQQYNNYPLTFGGGTKLEIK
scFv (part 2 of 2): EVNLEESGGGLVQPGGSMKLSCVASGFAFSNFWMQWVRQSPEKGLEWVAQIRLKSDNYAAHYAESVKGRFTISRDDSKSSVYLQLNNLRAEDTGTYYCTQGNWVGFAYWGQGTLVTVSA
notes: as for B1
For B10, the binding result in assay [1] and in assay [2] was “binds” in each case. The “Emax of OD450 nm binding value” amounted to 0.05 OD450 in assay [3] and 0.04 OD450 in assay [4].

B11: mab001 scFv-hFc (Fc fusion)
scFv (part 1 of 2): not shown
scFv (part 2 of 2): QIQLVQSGPELKKPGETVKISCKASGYTFTTYGMSWVKQAPGKGLKWMGWINTYSGVPTYADDFKGRFAFSLETSASTAYLQINNLKNEDTATYFCARIGDYDYGEYWGQGTLVTVSA
notes: as for B1
Consider B11, for which the binding result in assay [1] and in assay [2] was “binds” each time. The “Emax of OD450 nm binding value” in assay [3] and in assay [4] was 0.05 OD450 throughout.

B12: BI3 (antibody, human IgG1, kappa, V domains shown)
VH: QVQLVQSGAEVKKPGASVKVSCKASGYTFTSYYVHWVRQAPGQGLEWMVIINPGGGTTSYAQKFLGRVTMTRDTSTNTVYMELKSLRSEDTAVYYCARGEAVTGNYFYYGMDVWGQGTTVTVSS
VL: DIQMTQSPSAMSASVGDRVTITCRASQGISNYLVWFQQKPGKAPKRLIYAVSSLYSGVPSRFSGSGSGTEFTLTISSLQPEDFATYYCLQHDSYPYTFGQGTKLEIKR
notes: control antibody in complete IgG format, variable regions from WO2019234220A1
In the case of B12, in assay [5], the affinity, expressed as Kd, was 0.0497 nM; the koff (as a rule, the first-order rate constant of dissociation) was found to be 4.7e-05 s⁻¹; the kon (in general, a measure of how fast the partners come together) worked out at 945000 M⁻¹ s⁻¹.
